Experimental data published in IntAct's records for PubMed 24125847.

B1: Sarcoplasmic reticulum histidine-rich calcium-binding protein (Homo sapiens), P23327 (parent)
chain: MGHHRPWLHASVLWAGVASLLLPPAMTQQLRGDGLGFRNRNNSTGVAGLSEEASAELRHHLHSPRDHPDENKDVSTENGHHFWSHPDREKEDEDVSKEYGHLLPGHRSQDHKVGDEGVSGEEVFAEHGGQARGHRGHGSEDTEDSAEHRHHLPSHRSHSHQDEDEDEVVSSEHHHHILRHGHRGHDGEDDEGEEEEEEEEEEEEASTEYGHQAHRHRGHGSEEDEDVSDGHHHHGPSHRHQGHEEDDDDDDDDDDDDDDDDVSIEYRHQAHRHQGHGIEEDEDVSDGHHHRDPSHRHRSHEEDDNDDDDVSTEYGHQAHRHQDHRKEEVEAVSGEHHHHVPDHRHQGHRDEEEDEDVSTERWHQGPQHVHHGLVDEEEEEEEITVQFGHYVASHQPRGHKSDEEDFQDEYKTEVPHHHHHRVPREEDEEVSAELGHQAPSHRQSHQDEETGHGQRGSIKEMSHHPPGHTVVKDRSHLRKDDSEEEKEKEEDPGSHEEDDESSEQGEKGTHHGSRDQEDEEDEEEGHGLSLNQEEEEEEDKEEEEEEEDEERREERAEVGAPLSPDHSEEEEEEEEGLEEDEPRFTIIPNPLDRREEAGGASSEEESGEDTGPQDAQEYGNYQPGSLCGYCSFCNRCTECESCHCDEENMGEHCDQCQHCQFCYLCPLVCETVCAPGSYVDYFSSSLYQALADMLETPEP
partner: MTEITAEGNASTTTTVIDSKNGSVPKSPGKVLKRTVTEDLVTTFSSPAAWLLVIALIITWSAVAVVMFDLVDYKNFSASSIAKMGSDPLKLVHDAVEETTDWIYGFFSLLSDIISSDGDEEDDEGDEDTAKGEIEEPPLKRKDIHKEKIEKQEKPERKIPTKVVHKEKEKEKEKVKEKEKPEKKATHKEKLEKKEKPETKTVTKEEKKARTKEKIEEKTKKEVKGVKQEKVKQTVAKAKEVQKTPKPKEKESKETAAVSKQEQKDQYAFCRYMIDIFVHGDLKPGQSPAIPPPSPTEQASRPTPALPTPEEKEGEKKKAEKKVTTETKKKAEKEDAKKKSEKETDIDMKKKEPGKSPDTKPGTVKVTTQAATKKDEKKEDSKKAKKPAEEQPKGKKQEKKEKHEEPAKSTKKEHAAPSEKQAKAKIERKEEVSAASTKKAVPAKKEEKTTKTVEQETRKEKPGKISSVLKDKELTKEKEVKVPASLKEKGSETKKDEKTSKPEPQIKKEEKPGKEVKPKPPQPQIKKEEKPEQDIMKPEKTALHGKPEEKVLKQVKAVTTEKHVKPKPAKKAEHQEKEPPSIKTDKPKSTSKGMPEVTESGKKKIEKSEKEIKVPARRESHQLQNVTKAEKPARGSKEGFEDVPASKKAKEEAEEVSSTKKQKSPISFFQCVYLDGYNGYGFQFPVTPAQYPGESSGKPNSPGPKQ
B2: Sarcoplasmic reticulum histidine-rich calcium-binding protein (Homo sapiens), P23327 (parent)
chain: B1 chain
partner: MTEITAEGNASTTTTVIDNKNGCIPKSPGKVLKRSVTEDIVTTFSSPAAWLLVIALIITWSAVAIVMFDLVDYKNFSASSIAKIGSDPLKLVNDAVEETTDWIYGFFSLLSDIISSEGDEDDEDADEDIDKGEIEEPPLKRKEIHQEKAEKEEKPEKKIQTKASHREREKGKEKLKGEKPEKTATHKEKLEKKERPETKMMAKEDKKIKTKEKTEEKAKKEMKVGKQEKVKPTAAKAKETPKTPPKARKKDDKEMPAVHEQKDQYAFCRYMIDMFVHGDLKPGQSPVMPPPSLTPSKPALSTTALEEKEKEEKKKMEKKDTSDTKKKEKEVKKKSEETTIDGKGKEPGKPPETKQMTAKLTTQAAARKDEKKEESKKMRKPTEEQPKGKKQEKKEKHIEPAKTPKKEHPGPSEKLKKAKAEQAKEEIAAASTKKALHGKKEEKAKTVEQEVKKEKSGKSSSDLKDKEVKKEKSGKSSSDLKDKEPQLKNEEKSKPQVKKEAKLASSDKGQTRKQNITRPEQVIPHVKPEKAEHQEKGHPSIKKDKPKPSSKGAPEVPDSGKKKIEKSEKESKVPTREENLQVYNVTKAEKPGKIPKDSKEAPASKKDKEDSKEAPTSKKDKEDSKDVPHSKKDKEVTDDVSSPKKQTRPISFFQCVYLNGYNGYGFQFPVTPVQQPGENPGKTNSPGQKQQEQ

Variants of: B1
Conditions: with trdn_rabit TRDN

Variant | effect of a mutation on the interaction
S96A | decreasing interaction

Variants of: B2
Conditions: with trdn_mouse Trdn

Variant | effect of a mutation on the interaction
S96A | decreasing interaction
